Experimental data taken from patent US20220040297A1 (Chugai, published 2022).
Changes are numbered by the printed parent chain.

B1: GLS3000 N30E (antibody, name in Kabat numbering, V domains shown)
VH: QVQLVESGGGVVQPGRSLRLSCAASGFTFSNAWMHWVRQAPGKGLEWVAQIKAKSNNYATYYAESVKGRFTISRDDSKNSLYLQMNSLKTEDTAVYYCRYVHYGAYYGVDAWGQGTTVTVSS
VL: DIVMTQSPLSLPVTPGEPASISCRSSQSLVHSNRETYLHWYQQKPGQAPRLLIYKVSNRFSGVPDRFSGSGSGTDFTLKISRVEAEDVGVYYCGQGTQVPYTFGQGTKLEIK
notes: one-arm format as m2
B2: GLS3000 N53A (antibody, name in Kabat numbering, V domains shown)
VH: B1 VH
VL: B1 VL with E35N, N58A
notes: one-arm format as m2
B3: GLS3000 N30P (antibody, name in Kabat numbering, V domains shown)
VH: B1 VH
VL: B1 VL with E35P
notes: one-arm format as m2
B4: GLS3000 N30M (antibody, name in Kabat numbering, V domains shown)
VH: B1 VH
VL: B1 VL with E35M
notes: one-arm format as m2
B5: GLS3000 N30Q (antibody, name in Kabat numbering, V domains shown)
VH: B1 VH
VL: B1 VL with E35Q
notes: one-arm format as m2
B6: GLS3000 N30L (antibody, name in Kabat numbering, V domains shown)
VH: B1 VH
VL: B1 VL with E35L
notes: one-arm format as m2
B7: GLS3000 N30G (antibody, name in Kabat numbering, V domains shown)
VH: B1 VH
VL: B1 VL with E35G
notes: one-arm format as m2
B8: GLS3000 N53I (antibody, name in Kabat numbering, V domains shown)
VH: B1 VH
VL: B1 VL with E35N, N58I
notes: one-arm format as m2
B9: GLS3000 N53T (antibody, name in Kabat numbering, V domains shown)
VH: B1 VH
VL: B1 VL with E35N, N58T
notes: one-arm format as m2
B10: GLS3000 N30I (antibody, name in Kabat numbering, V domains shown)
VH: B1 VH
VL: B1 VL with E35I
notes: one-arm format as m2
B11: GLS3000 N53H (antibody, name in Kabat numbering, V domains shown)
VH: B1 VH
VL: B1 VL with E35N, N58H
notes: one-arm format as m2
B12: GLS3000 N53P (antibody, name in Kabat numbering, V domains shown)
VH: B1 VH
VL: B1 VL with E35N, N58P
notes: one-arm format as m2
B13: GLS3000 N53L (antibody, name in Kabat numbering, V domains shown)
VH: B1 VH
VL: B1 VL with E35N, N58L
notes: one-arm format as m2
B14: GLS3000 N53G (antibody, name in Kabat numbering, V domains shown)
VH: B1 VH
VL: B1 VL with E35N, N58G
notes: one-arm format as m2
B15: GLS3000 N30F (antibody, name in Kabat numbering, V domains shown)
VH: B1 VH
VL: B1 VL with E35F
notes: one-arm format as m2
B16: GLS3000 N30S (antibody, name in Kabat numbering, V domains shown)
VH: B1 VH
VL: B1 VL with E35S
notes: one-arm format as m2
B17: GLS3000 N30T (antibody, name in Kabat numbering, V domains shown)
VH: B1 VH
VL: B1 VL with E35T
notes: one-arm format as m2
B18: GLS3000 N53M (antibody, name in Kabat numbering, V domains shown)
VH: B1 VH
VL: B1 VL with E35N, N58M
notes: one-arm format as m2
B19: GLS3000 N53D (antibody, name in Kabat numbering, V domains shown)
VH: B1 VH
VL: B1 VL with E35N, N58D
notes: one-arm format as m2
B20: GLS3000 N30V (antibody, name in Kabat numbering, V domains shown)
VH: B1 VH
VL: B1 VL with E35V
notes: one-arm format as m2
B21: GLS3000 N30W (antibody, name in Kabat numbering, V domains shown)
VH: B1 VH
VL: B1 VL with E35W
notes: one-arm format as m2
B22: GLS3000 N53F (antibody, name in Kabat numbering, V domains shown)
VH: B1 VH
VL: B1 VL with E35N, N58F
notes: one-arm format as m2
B23: GLS3000 N30H (antibody, name in Kabat numbering, V domains shown)
VH: B1 VH
VL: B1 VL with E35H
notes: one-arm format as m2
B24: GLS3000 N53E (antibody, name in Kabat numbering, V domains shown)
VH: B1 VH
VL: B1 VL with E35N, N58E
notes: one-arm format as m2
B25: GLS3000 N30K (antibody, name in Kabat numbering, V domains shown)
VH: B1 VH
VL: B1 VL with E35K
notes: one-arm format as m2
B26: GLS3000 N30R (antibody, name in Kabat numbering, V domains shown)
VH: B1 VH
VL: B1 VL with E35R
notes: one-arm format as m2
B27: GLS3000 N53S (antibody, name in Kabat numbering, V domains shown)
VH: B1 VH
VL: B1 VL with E35N, N58S
notes: one-arm format as m2
B28: GLS3000 N53V (antibody, name in Kabat numbering, V domains shown)
VH: B1 VH
VL: B1 VL with E35N, N58V
notes: one-arm format as m2
B29: GLS3000 N53K (antibody, name in Kabat numbering, V domains shown)
VH: B1 VH
VL: B1 VL with E35N, N58K
notes: one-arm format as m2
B30: GLS3000 N53R (antibody, name in Kabat numbering, V domains shown)
VH: B1 VH
VL: B1 VL with E35N, N58R
notes: one-arm format as m2
B31: GLS3000 N53Q (antibody, name in Kabat numbering, V domains shown)
VH: B1 VH
VL: B1 VL with E35N, N58Q
notes: one-arm format as m2
B32: GLS3000 N30Y (antibody, name in Kabat numbering, V domains shown)
VH: B1 VH
VL: B1 VL with E35Y
notes: one-arm format as m2

Target: CD3ε homodimer protein (human, UniProt P07766 23-126, limits assumed)
Assay: SPR, immobilized CD3ε homodimer;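 further: biacore T200 surface plasmon resonance at 25 °C, antibody variants flowed as analytes over amine-coupled CD3ε homodimer on a CM4 chip, variant binding amount divided by that of GLS3000 antibody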

Sequence of CD3ε homodimer protein (P07766 23-126 limits assumed): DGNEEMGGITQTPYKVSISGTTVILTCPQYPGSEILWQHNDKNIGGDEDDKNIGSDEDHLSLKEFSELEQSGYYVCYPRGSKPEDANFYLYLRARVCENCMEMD

ratio of amounts bound (vs GLS3000)	Binder
0.44	B1
0.61	B2
0.31	B3
0.8	B4
0.87	B5
0.7	B6
0.47	B7
0.5	B8
0.56	B9
0.61	B10
1.18	B11
0.81	B12
0.56	B13
0.76	B14
1.1	B15
0.29	B16

ratio of amounts bound (vs GLS3000)	Binder
0.29	B17
0.62	B18
0.34	B19
0.61	B20
0.99	B21
0.69	B22
0.98	B23
0.54	B24
1.65	B25
1.86	B26
0.69	B27
0.56	B28
1.08	B29
1.58	B30
0.77	B31
1.04	B32
